Experimental data from PMC2888057.

Target: KCNQ1 H363C in the cysteine-less background (human) (UniProt P51787)

- time constant of oxidant (0.1% H2O2)-induced current reduction, H363C with D76C: 50 s
Substance: KCNE1 D76C in the cysteine-less, HA-tagged background (from UniProt P15382 1-129) (natural protein)
